In US20140242080A1 (Hoffmann-La Roche, published 2014):
Positions count from the first letter of the chain named. In names and notes the source's numbering stands.

What was measured:
[1] = biological target: T1, human MCSP expressed on tumor cells (Colo-38, WM266-4, A375, MV-3, HCT-116) (human, UniProt Q6UVK1 30-2322); experiment: flow cytometry on WM266-4 cells
T1 construct: whole, on cells; also called huMCSP; MCSP on cells
Description: (§1) Binding of the different bispecific constructs to CD3 on Jurkat cells (ATCC #TIB-152), and the respective tumor antigen on target cells, was determined by FACS. Briefly, cells were harvested, counted and checked for viability. 0.15-0.2 million cells per well (in PBS containing 0.1% BSA; 90 μl) were plated in a round-bottom 96-well plate and incubated with the indicated concentration of the bispecific constructs and corresponding IgG controls (10 μl) for 30 min at 4° C. […] After the incubation, cells were centrifuged (5 min, 350×g), washed with 150 μl PBS containing 0.1% BSA, resuspended and incubated for further 30 min at 4° C. with 12 μl/well of a FITC- or PE-conjugated secondary antibody. Bound constructs were detected using a FACSCantoII (Software FACS Diva). The “(scFv)₂” molecule was detected using a FITC-conjugated anti-His antibody (Lucerna, #RHIS-45F-Z). For all other molecules, a FITC- or PE-conjugated AffiniPure F(ab′)2 Fragment goat anti-human IgG Fcγ Fragment Specific (Jackson Immuno Research Lab #109-096-098/working solution 1:20, or #109-116-170/working solution 1:80, respectively) was used. Cells were washed by addition of 120 μl/well PBS containing 0.1% BSA and centrifugation at 350×g for 5 min. A second washing step was performed with 150 μl/well PBS containing 0.1% BSA. […] EC50 values were calculated using the GraphPad Prism software.

[2] = biological target: T2, human CD3 expressed on Jurkat cells (human, UniProt P07766 23-207); experiment: flow cytometry on Jurkat cells
T2 construct: CD3 complex on Jurkat T cells; also called CD3 on Jurkat cells; huCD3
T2 sequence (P07766 23-207 limits assumed): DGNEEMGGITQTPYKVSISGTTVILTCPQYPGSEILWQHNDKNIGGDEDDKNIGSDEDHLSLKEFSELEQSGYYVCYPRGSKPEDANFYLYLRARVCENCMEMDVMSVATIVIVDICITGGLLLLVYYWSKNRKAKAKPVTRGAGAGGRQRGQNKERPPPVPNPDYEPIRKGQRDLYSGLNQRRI
Description: as §1
As a control, the equivalent maximum concentration of the corresponding IgGs and the background staining due to the labeled 2ndary antibody (goat anti-human FITC-conjugated AffiniPure F(ab′)2 Fragment, FcγFragment-specific, Jackson Immuno Research Lab #109-096-098) were assessed as well.

[3] = biological target: T1, human MCSP expressed on tumor cells …; experiment: cell-based or functional assay
[4] = biological target: T1, human MCSP expressed on tumor cells …; experiment: cell-based or functional assay; remark: listed apart in the source
[5] = biological target: T1, human MCSP expressed on tumor cells …; experiment: flow cytometry on Colo-38 cells, 50 nM
Description: as §1
(§2) In a first experiment, different bispecific constructs targeting human MCSP and human CD3 were analyzed by flow cytometry for binding to human CD3 expressed on Jurkat, human T cell leukaemia cells, or to human MCSP on Colo-38 human melanoma cells.

[6] = biological target: T2, human CD3 expressed on Jurkat cells; experiment: flow cytometry on Jurkat cells, 50 nM
Description: as §1, §2

HuFcγRIIIa-V158-K6H6 = biological target: T3, HuFcγRIIIa-V158-K6H6 (human, UniProt P08637 17-208, limits assumed); experiment: SPR Biacore T100, 25 C; receptor captured via anti-Penta His, construct as analyte; kinetic, one concentration (1000 nM)
T3 construct: His-tagged recombinant receptor captured by anti-Penta His antibody; also called human FcγRIIIa-V158; human FcγRIIIa
T3 sequence (P08637 17-208 F176V limits assumed): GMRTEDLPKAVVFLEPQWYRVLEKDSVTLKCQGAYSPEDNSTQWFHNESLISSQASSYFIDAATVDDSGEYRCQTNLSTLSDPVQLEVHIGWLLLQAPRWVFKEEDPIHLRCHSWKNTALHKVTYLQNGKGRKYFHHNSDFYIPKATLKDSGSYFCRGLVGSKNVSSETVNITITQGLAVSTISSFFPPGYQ
Description: For analyzing interaction of different Fc-variants with human FcγRIIIa-V158 and murine FcγRIV direct coupling of around 6,500 resonance units (RU) of the anti-Penta His antibody (Qiagen) is performed on a CM5 chip at pH 5.0 using the standard amine coupling kit (Biacore, Freiburg/Germany). HuFcγRIIIa-V158-K6H6 and muFcγRIV-aviHis-biotin are captured for 60 s at 4 and 10 nM respectively.
Constructs with different Fc-mutations are passed through the flow cells for 120 s at a concentration of 1000 nM with a flow rate of 30 μl/min. The dissociation is monitored for 220 s. Bulk refractive index differences are corrected for by subtracting the response obtained in a reference flow cell. […] Affinity for human FcγRIIIa-V158 and murine FcγRIV was determined for wild-type Fc using a concentration range from 500-4000 nM.

T1 sequence (Q6UVK1 30-2322): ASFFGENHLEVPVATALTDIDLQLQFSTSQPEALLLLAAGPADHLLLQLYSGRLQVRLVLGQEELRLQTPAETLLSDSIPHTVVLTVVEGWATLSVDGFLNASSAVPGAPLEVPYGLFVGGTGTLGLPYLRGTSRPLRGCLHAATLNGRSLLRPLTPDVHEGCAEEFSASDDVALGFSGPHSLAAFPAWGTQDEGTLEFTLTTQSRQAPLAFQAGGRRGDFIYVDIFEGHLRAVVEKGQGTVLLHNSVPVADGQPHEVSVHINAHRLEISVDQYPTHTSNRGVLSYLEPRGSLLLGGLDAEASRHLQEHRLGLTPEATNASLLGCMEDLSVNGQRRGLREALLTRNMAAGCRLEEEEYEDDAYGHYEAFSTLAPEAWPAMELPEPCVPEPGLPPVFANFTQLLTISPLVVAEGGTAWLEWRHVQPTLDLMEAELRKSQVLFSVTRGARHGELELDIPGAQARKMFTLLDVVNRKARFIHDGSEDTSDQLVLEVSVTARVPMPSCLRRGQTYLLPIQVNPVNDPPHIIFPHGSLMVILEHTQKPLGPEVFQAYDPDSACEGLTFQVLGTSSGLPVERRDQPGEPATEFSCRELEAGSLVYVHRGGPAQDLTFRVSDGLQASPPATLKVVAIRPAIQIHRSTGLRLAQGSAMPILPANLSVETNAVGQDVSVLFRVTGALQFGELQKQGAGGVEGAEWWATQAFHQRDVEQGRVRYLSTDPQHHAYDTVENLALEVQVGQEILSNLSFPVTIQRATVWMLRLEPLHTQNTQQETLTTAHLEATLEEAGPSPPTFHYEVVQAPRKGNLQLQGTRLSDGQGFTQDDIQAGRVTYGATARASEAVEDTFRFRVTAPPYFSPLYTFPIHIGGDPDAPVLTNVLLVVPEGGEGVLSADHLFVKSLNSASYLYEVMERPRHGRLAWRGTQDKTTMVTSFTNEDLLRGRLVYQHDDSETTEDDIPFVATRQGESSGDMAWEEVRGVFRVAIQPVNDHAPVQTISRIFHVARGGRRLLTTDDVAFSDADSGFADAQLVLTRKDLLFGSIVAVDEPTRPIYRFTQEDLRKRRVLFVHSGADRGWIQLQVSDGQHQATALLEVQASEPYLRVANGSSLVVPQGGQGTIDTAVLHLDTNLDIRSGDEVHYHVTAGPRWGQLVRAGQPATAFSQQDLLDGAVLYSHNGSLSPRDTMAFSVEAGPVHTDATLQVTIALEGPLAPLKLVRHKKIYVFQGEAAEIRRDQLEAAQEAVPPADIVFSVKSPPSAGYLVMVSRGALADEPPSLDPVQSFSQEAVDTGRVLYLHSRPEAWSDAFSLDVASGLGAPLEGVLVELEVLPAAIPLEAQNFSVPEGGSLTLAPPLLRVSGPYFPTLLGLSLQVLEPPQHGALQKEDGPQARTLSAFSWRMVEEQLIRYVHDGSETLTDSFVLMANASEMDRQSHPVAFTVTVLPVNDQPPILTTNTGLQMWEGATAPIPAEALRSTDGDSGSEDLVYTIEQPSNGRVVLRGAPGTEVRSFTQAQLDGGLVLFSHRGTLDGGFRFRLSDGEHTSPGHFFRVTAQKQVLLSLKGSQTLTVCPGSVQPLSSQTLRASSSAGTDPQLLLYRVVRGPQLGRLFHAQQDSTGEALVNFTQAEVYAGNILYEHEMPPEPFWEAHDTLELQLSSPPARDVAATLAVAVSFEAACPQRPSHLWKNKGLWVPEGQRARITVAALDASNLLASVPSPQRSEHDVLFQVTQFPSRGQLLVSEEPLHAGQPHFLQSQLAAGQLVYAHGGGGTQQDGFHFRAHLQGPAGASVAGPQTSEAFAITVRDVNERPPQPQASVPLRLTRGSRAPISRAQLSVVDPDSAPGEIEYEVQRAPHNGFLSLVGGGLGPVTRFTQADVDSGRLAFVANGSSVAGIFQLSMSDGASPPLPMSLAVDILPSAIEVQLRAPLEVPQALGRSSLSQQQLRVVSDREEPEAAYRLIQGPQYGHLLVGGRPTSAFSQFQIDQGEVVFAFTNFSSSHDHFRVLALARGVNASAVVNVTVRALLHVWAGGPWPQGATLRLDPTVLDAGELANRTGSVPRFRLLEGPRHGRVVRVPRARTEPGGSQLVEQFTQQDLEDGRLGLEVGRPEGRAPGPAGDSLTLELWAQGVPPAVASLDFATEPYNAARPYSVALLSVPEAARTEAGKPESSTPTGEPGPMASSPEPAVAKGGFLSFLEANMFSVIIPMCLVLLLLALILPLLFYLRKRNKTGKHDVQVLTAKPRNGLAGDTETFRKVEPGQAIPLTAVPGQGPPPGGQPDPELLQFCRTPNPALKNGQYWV

B1: 2 + 1 IgG Crossfab; VH/VL exchange (LC007/V9) (anti-MCSP/anti-huCD3) (bispecific antibody)
chain 1: not shown
chain 2: DIVLTQSPSSLSASLGDRVTISCSASQGIRNYLNWYQQRPDGTVKLLIYYTSSLHSGVPSRFSGSGSGTDYSLTISNLEPEDIATYYCQQYSKLPWTFGGGTKLEIKRTVAAPSVFIFPPSDEQLKSGTASVVCLLNNFYPREAKVQWKVDNALQSGNSQESVTEQDSKDSTYSLSSTLTLSKADYEKHKVYACEVTHQGLSSPVTKSFNRGEC
chain 3: DIQMTQSPSSLSASVGDRVTITCRASQDIRNYLNWYQQKPGKAPKLLIYYTSRLESGVPSRFSGSGSGTDYTLTISSLQPEDFATYYCQQGNTLPWTFGQGTKVEIKSSASTKGPSVFPLAPSSKSTSGGTAALGCLVKDYFPEPVTVSWNSGALTSGVHTFPAVLQSSGLYSLSSVVTVPSSSLGTQTYICNVNHKPSNTKVDKKVEPKSCGGGGSGGGGSEVQLQESGPGLVKPSQSLSLTCSVTGYSITSGYYWNWIRQFPGNKLEWMGYITYDGSNNYNPSLKNRISITRDTSKNQFFLKLNSVTTEDTATYYCADFDYWGQGTTLTVSSASTKGPSVFPLAPSSKSTSGGTAALGCLVKDYFPEPVTVSWNSGALTSGVHTFPAVLQSSGLYSLSSVVTVPSSSLGTQTYICNVNHKPSNTKVDKKVEPKSCDKTHTCPPCPAPEAAGGPSVFLFPPKPKDTLMISRTPEVTCVVVDVSHEDPEVKFNWYVDGVEVHNAKTKPREEQYNSTYRVVSVLTVLHQDWLNGKEYKCKVSNKALGAPIEKTISKAKGQPREPQVCTLPPSRDELTKNQVSLSCAVKGFYPSDIAVEWESNGQPENNYKTTPPVLDSDGSFFLVSKLTVDKSRWQQGNVFSCSVMHEALHNHYTQKSLSLSPGK
chain 4: EVQLVESGGGLVQPGGSLRLSCAASGYSFTGYTMNWVRQAPGKGLEWVALINPYKGVSTYNQKFKDRFTISVDKSKNTAYLQMNSLRAEDTAVYYCARSGYYGDSDWYFDVWGQGTLVTVSSASVAAPSVFIFPPSDEQLKSGTASVVCLLNNFYPREAKVQWKVDNALQSGNSQESVTEQDSKDSTYSLSSTLTLSKADYEKHKVYACEVTHQGLSSPVTKSFNRGEC
notes: vectors second heavy chain:light chain:first heavy chain-heavy chain Crossfab:light chain Crossfab 1:2:1:1; also called 2+1 IgG Crossfab (V9)
[1]
  EC50: 0.95 nM
[2]
  EC50: 1.66 nM
[3]
  EC50 of T cell-mediated killing (LDH release), MV-3 cells, human PBMCs E:T 10:1, 21 h: 0.0092 nM
  EC50 of T cell-mediated killing (LDH release), WM266-4 cells, human PBMCs E:T 10:1, 21 h: 0.0331 nM
[4]
  EC50 [pM] of T cell-mediated killing (LDH release), MV-3 cells, human PBMCs E:T 10:1, about 24 h: 10 pM
  EC50 [pM] of T cell-mediated killing (LDH release), WM266-4 cells, human PBMCs E:T 10:1, about 24 h: 12.4 pM

B2: “1+1 IgG scFab, one armed” (anti-MCSP/anti-huCD3) (bispecific antibody)
chain 1: not shown
chain 2: not shown
chain 3: B1 chain 2
[5]
  binding result: binds
[6]
  binding result: binds

B3: 2 + 1 IgG Crossfab, inverted; CL/CH1 exchange (LC007/anti-CD3) (anti-MCSP/anti-huCD3) (bispecific antibody)
chain 1: B1 chain 2
chain 2: EVQLQESGPGLVKPSQSLSLTCSVTGYSITSGYYWNWIRQFPGNKLEWMGYITYDGSNNYNPSLKNRISITRDTSKNQFFLKLNSVTTEDTATYYCADFDYWGQGTTLTVSSASTKGPSVFPLAPSSKSTSGGTAALGCLVKDYFPEPVTVSWNSGALTSGVHTFPAVLQSSGLYSLSSVVTVPSSSLGTQTYICNVNHKPSNTKVDKKVEPKSCDKTHTCPPCPAPEAAGGPSVFLFPPKPKDTLMISRTPEVTCVVVDVSHEDPEVKFNWYVDGVEVHNAKTKPREEQYNSTYRVVSVLTVLHQDWLNGKEYKCKVSNKALGAPIEKTISKAKGQPREPQVCTLPPSRDELTKNQVSLSCAVKGFYPSDIAVEWESNGQPENNYKTTPPVLDSDGSFFLVSKLTVDKSRWQQGNVFSCSVMHEALHNHYTQKSLSLSPGK
chain 3: QAVVTQESALTTSPGETVTLTCRSSTGAVTTSNYANWVQEKPDHLFTGLIGGTNKRAPGVPARFSGSLIGDKAALTITGAQTEDEAIYFCALWYSNLWVFGGGTKLTVLSSASTKGPSVFPLAPSSKSTSGGTAALGCLVKDYFPEPVTVSWNSGALTSGVHTFPAVLQSSGLYSLSSVVTVPSSSLGTQTYICNVNHKPSNTKVDKKVEPKSC
chain 4: not shown
notes: also called 2+1 IgG Crossfab, inverted (anti-CD3)
[1]
  EC50: 3.4 nM
[2]
  EC50: 32 nM
[4]
  EC50 [pM] of T cell-mediated killing (LDH release), MV-3 cells, human PBMCs E:T 10:1, about 24 h: 3 pM
  EC50 [pM] of T cell-mediated killing (LDH release), WM266-4 cells, human PBMCs E:T 10:1, about 24 h: 7.1 pM

B4: “2+1 IgG scFab, LALA” (anti-MCSP/anti-huCD3) (bispecific antibody)
chain 1: B1 chain 2
chain 2: not shown
chain 3: B3 chain 2 with G324P
notes: Fc with L234A L235A; also called Fc-LALA; copies: 2 + 1 + 1
HuFcγRIIIa-V158-K6H6
  Kd: 2130 nM
[5]
  binding result: binds
[6]
  binding result: binds

B5: “1+1 IgG scFab, one armed inverted” (anti-MCSP/anti-huCD3) (bispecific antibody)
chain 1: DIVLTQSPSSLSASLGDRVTISCSASQGIRNYLNWYQQRPDGTVKLLIYYTSSLHSGVPSRFSGSGSGTDYSLTISNLEPEDIATYYCQQYSKLPWTFGGGTKLEIKRTVAAPSVFIFPPSDEQLKSGTASVVCLLNNFYPREAKVQWKVDNALQSGNSQESVTEQDSKDSTYSLSSTLTLSKADYEKHKVYACEVTHQGLSSPVTKSFNRGECSGGGSGGGSEGGGSEGGGSEGGGSEGGGSGGGSGEVQLQESGPGLVKPSQSLSLTCSVTGYSITSGYYWNWIRQFPGNKLEWMGYITYDGSNNYNPSLKNRISITRDTSKNQFFLKLNSVTTEDTATYYCADFDYWGQGTTLTVSSASTKGPSVFPLAPSSKSTSGGTAALGCLVKDYFPEPVTVSWNSGALTSGVHTFPAVLQSSGLYSLSSVVTVPSSSLGTQTYICNVNHKPSNTKVDKKVEPKSCDGGGGSGGGGSGAQDKTHTCPPCPAPEAAGGPSVFLFPPKPKDTLMISRTPEVTCVVVDVSHEDPEVKFNWYVDGVEVHNAKTKPREEQYNSTYRVVSVLTVLHQDWLNGKEYKCKVSNKALPAPIEKTISKAKGQPREPQVCTLPPSRDELTKNQVSLSCAVKGFYPSDIAVEWESNGQPENNYKTTPPVLDSDGSFFLVSKLTVDKSRWQQGNVFSCSVMHEALHNHYTQKSLSLSPGK
chain 2: not shown
chain 3: not shown
[5]
  binding result: binds
[6]
  binding result: binds
